In article PMC10093973, “The RNA-Binding and RNA-Melting Activities of the Multifunctional Protein Nucleobindin 1” (International Journal of Molecular Sciences, 2023):

Legend:
[1] = target: T1, NUCB1 ΔN (Homo sapiens) (UniProt Q02818); assay: SPR; details: SPR: 50 mM Tris-HCl pH 8.0, 200 mM NaCl, 0.1% Tween-20, with or without 2 mM CaCl2, 25 °C; 5'-biotinylated RNA immobilized, NUCB1 as analyte, 1:1 model
T1 sequence: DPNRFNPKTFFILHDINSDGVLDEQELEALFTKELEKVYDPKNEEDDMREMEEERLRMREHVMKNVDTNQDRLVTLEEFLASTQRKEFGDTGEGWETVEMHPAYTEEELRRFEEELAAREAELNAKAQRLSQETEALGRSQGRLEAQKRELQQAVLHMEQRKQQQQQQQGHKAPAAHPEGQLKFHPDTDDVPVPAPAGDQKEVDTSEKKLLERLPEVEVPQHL

[2] = target: T2, NUCB1 CaBD (Homo sapiens) (UniProt Q02818); assay: SPR; details: SPR: 50 mM Tris-HCl pH 8.0, 200 mM NaCl, 0.1% Tween-20, with or without 2 mM CaCl2, 25 °C; 5'-biotinylated RNA immobilized, NUCB1 as analyte, 1:1 model
T2 sequence: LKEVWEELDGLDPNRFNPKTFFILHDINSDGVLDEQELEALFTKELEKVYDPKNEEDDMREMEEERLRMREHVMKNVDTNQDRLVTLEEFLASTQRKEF

[3] = target: T3, NUCB1 ΔZ (Homo sapiens) (UniProt Q02818); assay: SPR; details: SPR: 50 mM Tris-HCl pH 8.0, 200 mM NaCl, 0.1% Tween-20, with or without 2 mM CaCl2, 25 °C; 5'-biotinylated RNA immobilized, NUCB1 as analyte, 1:1 model
T3 sequence: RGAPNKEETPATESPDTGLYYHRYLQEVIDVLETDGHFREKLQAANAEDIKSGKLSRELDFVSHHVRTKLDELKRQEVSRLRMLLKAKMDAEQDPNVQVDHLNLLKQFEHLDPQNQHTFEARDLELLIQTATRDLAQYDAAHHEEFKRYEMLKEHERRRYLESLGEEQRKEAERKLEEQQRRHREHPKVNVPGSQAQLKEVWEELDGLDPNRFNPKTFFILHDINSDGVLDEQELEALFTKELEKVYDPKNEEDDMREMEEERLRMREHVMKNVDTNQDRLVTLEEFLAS

[4] = target: the molecule itself; assay: SEC; size-exclusion chromatography of the final preparations on Superdex 200 in 150 mM NaCl, 50 mM Tris-HCl (pH 8.0); oligomeric state of each protein
[5] = target: T4, NUCB1 ΔN (Homo sapiens, UniProt Q02818 239-461); assay: SPR; SPR: 50 mM Tris-HCl pH 8.0, 200 mM NaCl, 0.1% Tween-20, with or without 2 mM CaCl2, 25 °C; 5'-biotinylated RNA immobilized, NUCB1 as analyte, 1:1 model; details: protein: recombinant; tags: N-terminal His6; label: 5'-biotin
T4 sequence: T1 sequence

[6] = target: T5, NUCB1 CaBD (Homo sapiens, UniProt Q02818 228-326); assay: as above; details: protein: recombinant; tags: N-terminal His6; label: 5'-biotin
T5 sequence: T2 sequence

[7] = target: T6, NUCB1 ΔZ (Homo sapiens, UniProt Q02818 31-320); assay: as above; details: protein: recombinant; tags: N-terminal His6; label: 5'-biotin
T6 sequence: T3 sequence

GUGGUCAGUCGAGUGGGGGGGG [G-rich]
Kd [1]: 5.3 nM | Kd [2]: 18.2 nM | Kd [3]: 3.1 nM

GUGGUCAGUCGAGUGGAAAAAAAAAAAAAAAAAA [A-rich]
Kd [1]: 1.4 nM | Kd [2]: 5.7 nM | Kd [3]: 0.3 nM

GUGGUCAGUCGAGUGGUUUUUUUUUUUUUUUUUU [U-rich]
Kd [1]: 1.7 nM | Kd [2]: 0.2 nM | Kd [3]: 0.4 nM

B1: Nucleobindin 1 (NUCB1) lacking the signal peptide (1-30 aa) (natural protein, human, UniProt Q02818 31-461, looked up)
chain: RGAPNKEETPATESPDTGLYYHRYLQEVIDVLETDGHFREKLQAANAEDIKSGKLSRELDFVSHHVRTKLDELKRQEVSRLRMLLKAKMDAEQDPNVQVDHLNLLKQFEHLDPQNQHTFEARDLELLIQTATRDLAQYDAAHHEEFKRYEMLKEHERRRYLESLGEEQRKEAERKLEEQQRRHREHPKVNVPGSQAQLKEVWEELDGLDPNRFNPKTFFILHDINSDGVLDEQELEALFTKELEKVYDPKNEEDDMREMEEERLRMREHVMKNVDTNQDRLVTLEEFLASTQRKEFGDTGEGWETVEMHPAYTEEELRRFEEELAAREAELNAKAQRLSQETEALGRSQGRLEAQKRELQQAVLHMEQRKQQQQQQQGHKAPAAHPEGQLKFHPDTDDVPVPAPAGDQKEVDTSEKKLLERLPEVEVPQHL
notes: the C-terminal limit 461 is the one printed for NUCB1 ΔN, which was made with the same reverse primer; Cloned in pET-28a between EcoR I and Hind III from a HEK293T cDNA library; No removal of the His6 tag is described; also called Calnuc; intact NUCB1; source: E. coli BL21(DE3)/pRARE, purified (Ni-NTA agarose; analysed by SEC on Superdex 200)
stoichiometry N [4]: 2

B2: NUCB1 ΔN (239-461 aa) (domain or fragment, human, UniProt Q02818 239-461, looked up)
chain: T1 sequence
notes: Cloned in pET-28a; source: E. coli BL21(DE3)/pRARE, purified (Ni-NTA agarose; analysed by SEC on Superdex 200)
stoichiometry N [4]: 2

GUGGUCAGUCGAGUGGUAACACUGUCUGGUAACGAUGU (ssRNA) [miR-200a-3p]
Kd [5]: 0.6 ± 0.09 nM | Kd [6]: 5.2 ± 0.2 nM | Kd [7]: 0.3 ± 0.01 nM
